B1: DNAJC7 (protein)
chain: AAAAECDVVMAATEPELLDDQEAKREAETFKEQGNAYYAKKDYNEAYNYYTKAIDMCPKNASYYGNRAATLMMLGRFREALGDAQQSVRLDDSFVRGHLREGKCHLSLGNAMAACRSFQRALELDHKNAQAQQEFKNANAVMEYEKIAETDFEKRDFRKVVFCMDRALEFAPACHRFKILKAECLAMLGRYPEAQSVASDILRMDSTNADALYVRGLCLYYEDCIEKAVQFFVQALRMAPDHEKACIACRNAKALKAKKEDGNKAFKEGNYKLAYELYTEALGIDPNNIKTNAKLYCNRGTVNSKLRKLDDAIEDCTNAVKLDDTYIKAYLRRAQCYMDTEQYEEAVRDYEKVYQTEKTKEHKQLLKNAQLELKKSKRKDYYKILGVDKNASEDEIKKAYRKRALMHHPDRHSGASAEVQKEEEKKFKEVGEAFTILSDPKKKTRYDSGQDLDEEGMNMGDFDPNNIFKAFFGGPGGFSFEASGPGNFFFQFG
B2: TUBA1C (protein)
chain: MTAWFNGVEELGRDECFVCLELDPSNGSFLNAKLYISNWILIYFTRTLQLPAPFNTCTSSKSRGEPGCDSKRECISIHVGQAGVQIGNACWELYCLEHGIQPDGQMPSDKTIGGGDDSFNTFFSETGAGKHVPRAVFVDLEPTVIDEVRTGTYRQLFHPEQLITGKEDAANNYARGHYTIGKEIIDLVLDRIRKLADQCTGLQGFLVFHSFGGGTGSGFTSLLMERLSVDYGKKSKLEFSIYPAPQVSTAVVEPYNSILTTHTTLEHSDCAFMVDNEAIYDICRRNLDIERPTYTNLNRLISQIVSSITASLRFDGALNVDLTEFQTNLVPYPRIHFPLATYAPVISAEKAYHEQLTVAEITNACFEPANQMVKCDPRHGKYMACCLLYRGDVVPKDVNAAIATIKTKRTIQFVDWCPTGFKVGINYQPPTVVPGGDLAKVQRAVCMLSNTTAVAEAWARLDHKFDLMYAKRAFVHWYVGEGMEEGEFSEAREDMAALEKDYEEVGADSADGEDEGEEY
B3: QIL1 (protein)
chain: MVARVWSLMRFLIKGSVAGGAVYLVYDQELLGPSDKSQAALQKAGEVVPPAMYQFSQYVCQQTGLQIPQLPAPPKIYFPIRDSWNAGIMTVMSALSVAPSKAREYSKEGWEYVKARTK
B4: SEC61A1 (protein)
chain: MTQTARVLVKFLEVIKPFCVILPEIQKPERKIQFKEKVLWTAITLFIFLVCCQIPLFGIMSSDSADPFYWMRVILASNRGTLMELGISPIVTSGLIMQLLAGAKIIEVGDTPKDRALFNGAQKLFGMIITIGQSIVYVMTGMYGDPSEMGAGICLLITIQLFVAGLIVLLLDELLQKGYGLGSGISLFIATNICETIVWKAFSPTTVNTGRGMEFEGAIIALFHLLATRTDKVRALREAFYRQNLPNLMNLIATIFVFAVVIYFQGFRVDLPIKSARYRGQYNTYPIKLFYTSNIPIILQSALVSNLYVISQMLSARFSGNLLVSLLGTWSDTSSGGPARAYPVGGLCYYLSPPESFGSVLEDPVHAVVYIVFMLGSCAFFSKTWIEVSGSSAKDVAKQLKEQQMVMRGHRETSMVHELNRYIPTAAAFGGLCIGALSVLADFLGAIGSGTGILLAVTIIYQYFEIFVKEQSEVGSMGALLF
B5: DHCR7 (protein)
chain: MAAKSQPNIPKAKSLDGVTNDRTASQGQWGRAWEVDWFSLASVIFLLLFAPFIVYYFIMACDQYSCALTGPVVDIVTGHARLSDIWAKTPPITRKAAQLYTLWVTFQVLLYTSLPDFCHKFLPGYVGGIQEGAVTPAGVVNKYQINGLQAWLLTHLLWFANAHLLSWFSPTIIFDNWIPLLWCANILGYAVSTFAMVKGYFFPTSARDCKFTGNFFYNYMMGIEFNPRIGKWFDFKLFFNGRPGIVAWTLINLSFAAKQRELHSHVTNAMVLVNVLQAIYVIDFFWNETWYLKTIDICHDHFGWYLGWGDCVWLPYLYTLQGLYLVYHPVQLSTPHAVGVLLLGLVGYYIFRVANHQKDLFRRTDGRCLIWGRKPKVIECSYTSADGQRHHSKLLVSGFWGVARHFNYVGDLMGSLAYCLACGGGHLLPYFYIIYMAILLTHRCLRDEHRCASKYGRDWERYTAAVPYRLLPGIF
B6: STT3A (protein)
chain: MTKFGFLRLSYEKQDTLLKLLILSMAAVLSFSTRLFAVLRFESVIHEFDPYFNYRTTRFLAEEGFYKFHNWFDDRAWYPLGRIIGGTIYPGLMITSAAIYHVLHFFHITIDIRNVCVFLAPLFSSFTTIVTYHLTKELKDAGAGLLAAAMIAVVPGYISRSVAGSYDNEGIAIFCMLLTYYMWIKAVKTGSICWAAKCALAYFYMVSSWGGYVFLINLIPLHVLVLMLTGRFSHRIYVAYCTVYCLGTILSMQISFVGFQPVLSSEHMAAFGVFGLCQIHAFVDYLRSKLNPQQFEVLFRSVISLVGFVLLTVGALLMLTGKISPWTGRFYSLLDPSYAKNNIPIIASVSEHQPTTWSSYYFDLQLLVFMFPVGLYYCFSNLSDARIFIIMYGVTSMYFSAVMVRLMLVLAPVMCILSGIGVSQVLSTYMKNLDISRPDKKSKKQQDSTYPIKNEVASGMILVMAFFLITYTFHSTWVTSEAYSSPSIVLSARGGDGSRIIFDDFREAYYWLRHNTPEDAKVMSWWDYGYQITAMANRTILVDNNTWNNTHISRVGQAMASTEEKAYEIMRELDVSYVLVIFGGLTGYSSDDINKFLWMVRIGGSTDTGKHIKENDYYTPTGEFRVDREGSPVLLNCLMYKMCYYRFGQVYTEAKRPPGFDRVRNAEIGNKDFELDVLEEAYTTEHWLVRIYKVKDLDNRGLSRT
B7: DNAJC3 (protein)
chain: GVNADVEKHLELGKKLLAAGQLADALSQFHAAVDGDPDNYIAYYRRATVFLAMGKSKAALPDLTKVIQLKMDFTAARLQRGHLLLKQGKLDEAEDDFKKVLKSNPSENEEKEAQSQLIKSDEMQRLRSQALNAFGSGDYTAAIAFLDKILEVCVWDAELRELRAECFIKEGEPRKAISDLKAASKLKNDNTEAFYKISTLYYQLGDHELSLSEVRECLKLDQDHKRCFAHYKQVKKLNKLIESAEELIRDGRYTDATSKYESVMKTEPSIAEYTVRSKERICHCFSKDEKPVEAIRVCSEVLQMEPDNVNALKDRAEAYLIEEMYDEAIQDYETAQEHNENDQQIREGLEKAQRLLKQSQKRDYYKILGVKRNAKKQEIIKAYRKLALQWHPDNFQNEEEKKKAEKKFIDIAAAKEVLSDPEMRKKFDDGEDPLDAESQQGGGGNPFHRSWNSWQGFNPFSSGGPFRFKFHFN
B8: TUBA4A (protein)
chain: MRECISVHVGQAGVQMGNACWELYCLEHGIQPDGQMPSDKTIGGGDDSFTTFFCETGAGKHVPRAVFVDLEPTVIDEIRNGPYRQLFHPEQLITGKEDAANNYARGHYTIGKEIIDPVLDRIRKLSDQCTGLQGFLVFHSFGGGTGSGFTSLLMERLSVDYGKKSKLEFSIYPAPQVSTAVVEPYNSILTTHTTLEHSDCAFMVDNEAIYDICRRNLDIERPTYTNLNRLISQIVSSITASLRFDGALNVDLTEFQTNLVPYPRIHFPLATYAPVISAEKAYHEQLSVAEITNACFEPANQMVKCDPRHGKYMACCLLYRGDVVPKDVNAAIAAIKTKRSIQFVDWCPTGFKVGINYQPPTVVPGGDLAKVQRAVCMLSNTTAIAEAWARLDHKFDLMYAKRAFVHWYVGEGMEEGEFSEAREDMAALEKDYEEVGIDSYEDEDEGEE
B9: PSMA3 (protein)
chain: SSIGTGYDLSASTFSPDGRVFQVEYAMKAVENSSTAIGIRCKDGVVFGVEKLVLSKLYEEGSNKRLFNVDRHVGMAVAGLLADARSLADIAREEASNFRSNFGYNIPLKHLADRVAMYVHAYTLYSAVRPFGCSFMLGSYSVNDGAQLYMIDPSGVSYGYWGCAIGKARQAAKTEIEKLQMKEMTCRDIVKEVAKIIYIVHDEVKDKAFELELSWVGELTNGRHEIVPKDIREEAEKYAKESLKEEDESDDDNM
B10: HEATR2 (protein)
chain: AALGVAEAVAAPHPAEGAETAEAVELSRALSRLLPGLEADSKPGRRRALEALRRALEEPGPAADPTAFQGPWARLLLPRLLRCLSDPAEGCRALAVHLLDLGLRRAARPRDALPRLLPALAARLAGPVPARRPPEACEELRLALVQLLGLAVDLCGAALAPHLDDALRALRCSLLDPFAAVRRESCSCAAALAQATPDHFHMQSESLIGPLMQTISHQHWKVRVAAIEATGAVIHFGNGKSVDDVLSHFAQRLFDDVPQVRRAVASVVGGWLLCLRDRYSFFHKLIPLLLSSLNDEVPEVRQLAASLWEDVGLQWQKENEEDLKDKLDFAPPTPPHYPPHERRPVLGCRELVFRNLSKILPALCHDITDWVVGTRVKSAQLLPVLLLHAEDHATQHLEVVLRTLFQACTDEEAAVVQSCTRSAELVGTFVSPEVFLKLILSTLKKTPSASGLLVLASAMRGCPREALQPHLAAIATELAQAHICQASENDLYLERLLLCVQALVSVCHEDCGVASLQLLDVLLTIVALAGATGLRDKAQETMDSLAMVEGVSSCQDLYRKHIGPLLERVTASHLDWTAHSPELLQFSVIVAQSGPALGEALPHVVPTLRACLQPSQDPQMRLKLFSILSTVLLRATDTINSQGQFPSYLETVTKDILAPNLQWHAGRTAAAIRTAAVSCLWALTSSEVLSAEQIRDVQETLMPQVLTTLEEDSKMTRLISCRIINTFLKTSGGMTDPEKLIRIYPELLKRLDDVSNDVRMAAASTLVTWLQCVKGANAKSYYQSSVQYLYRELLVHLDDPERAIQDAILEVLKEGSGLFPDLLVRETEAVIHKHRSATYCEQLLQHVQAVPATQ
B11: BRAT1 (protein)
chain: MDPECAQLLPALCAVLVDPRQPVADDTCLEKLLDWFKTVTEGESSVVLLQEHPCLVELLSHVLKVQDLSSGVLSFSLRLAGTFAAQENCFQYLQQGELLPGLFGEPGPLGRATWAVPTVRSGWIQGLRSLAQHPSALRFLADHGAVDTIFSLQGDSSLFVASAASQLLVHVLALSMRGGAEGQPCLPGGDWPACAQKIMDHVEESLCSAATPKVTQALNVLTTTFGRCQSPWTEALWVRLSPRVACLLERDPIPAAHSFVDLLLCVARSPVFSSSDGSLWETVARALSCLGPTHMGPLALGILKLEHCPQALRTQAFQVLLQPLACVLKATVQAPGPPGLLDGTADDATTVDTLLASKSSCAGLLCRTLAHLEELQPLPQRPSPWPQASLLGATVTVLRLCDGSAAPASSVGGHLCGTLAGCVRVQRAALDFLGTLSQGTGPQELVTQALAVLLECLESPGSSPTVLKKAFQATLRWLLSSPKTPGCSDLGPLIPQFLRELFPVLQKRLCHPCWEVRDSALEFLTQLSRHWGGQADFRCALLASEVPQLALQLLQDPESYVRASAVTAMGQLSSQGLHAPTSPEHAEARQSLFLELLHILSVDSEGFPRRAVMQVFTEWLRDGHADAAQDTEQFVATVLQAASRDLDWEVRAQGLELALVFLGQTLGPPRTHCPYAVALPEVAPAQPLTEALRALCHVGLFDFAFCALFDCDRPVAQKSCDLLLFLRDKIASYSSLREARGSPNTASAEATLPRWRAGEQAQPPGDQEPEAVLAMLRSLDLEGLRSTLAESSDHVEKSPQSLLQDMLATGGFLQGDEADCY

System: SLC16A11
Assay: SLC16A11 protein-protein interaction study (immunoprecipitation, quantitative mass spectrometry)
Parameters: species or system human
Conditions: putative SLC16A11^REF interaction partners; immunoprecipitation from HEK293T cells vs empty vector control; Blandt-Altman

Molecule | BA log fold change
B1 | 1.05
B2 | 1.04
B3 | 1.08
B4 | 1.84
B5 | 1.69
B6 | 1.27
B7 | 1.22
B8 | 1.02
B9 | 1.09
B10 | 1.03
B11 | 1.04
